# B1: KRT33B (parent)
# chain: PAVDLNQVLNETRNQYEALVETNR
# Variants of: B1
# Experiment: protein stability index of a GFP-peptide fusion (GPS, HEK-293T) (PSI 1-6); higher = more stable
# Settings: c terminus: a fixed tail appended
# 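Also: lentivirally expressed fusions sorted by FACS into six bins by GFP to DsRed ratio, PSI derived from sequencing read proportions per bin multiplied by bin number.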
row,Variant,protein stability index
1,E17K,3.48
2,E17T,3.62
3,E17V,3.71
4,E17P,4.39
5,N10M,2.23
6,N10R,2.76
7,N10S,3.31
8,N10G,4.34
9,N10E,2.09
10,N10F,2.44
11,N10L,2.56
12,N10V,3.22
13,N10Q,2.58
14,N10D,3.3
15,N10I,2.64
16,N10W,2.37
17,N10H,3.74
18,N10C,3.59
19,N10P,4.84
20,N10K,2.74
21,N10A,2.98
22,N10T,2.67
23,N10Y,2.47
24,E11P,4.27

row,Variant,protein stability index
1,E11R,4.02
2,E11G,3.85
3,E11N,3.94
4,E11H,4.13
5,E11Q,4.29
6,E11V,3.88
7,E11K,3.85
8,E11C,4.3
9,E11D,3.77
10,E11F,3.84
11,E11Y,3.85
12,E11M,3.31
13,E11L,3.81
14,E11S,3.62
15,E11W,3.38
16,E11T,4.1
17,E11A,3.63
18,E11I,3.97
19,T12I,2.41
20,T12N,4.11
21,T12Q,2.85
22,T12R,4.89
23,T12F,1.85
24,T12D,4.61

row,Variant,protein stability index
1,T12W,3.09
2,T12G,4.32
3,T12H,2.84
4,T12K,4.41
5,T12E,4.5
6,T12M,3.4
7,T12A,2.16
8,T12P,4.52
9,T12C,3.24
10,T12S,3.8
11,T12Y,2.77
12,A18H,4.09
13,A18N,3.89
14,A18F,3.48
15,A18K,2.69
16,A18D,4.43
17,A18Q,2.96
18,A18L,3.59
19,A18M,3.55
20,A18E,3.58
21,A18C,3.83
22,A18I,3.55
23,A18P,4.28
24,A18G,4.48

row,Variant,protein stability index
1,A18R,2.53
2,V3E,4.05
3,V3G,4.65
4,V3C,2.81
5,V3F,4.36
6,V3D,4.77
7,V3K,3.83
8,V3A,3.85
9,V3I,3.77
10,V3S,3.64
11,V3N,4.25
12,V3H,4.33
13,V3Q,3.29
14,V3R,3.4
15,V3W,4.12
16,V3P,4.99
17,V3M,2.7
18,V3Y,3.56
19,V3T,3.87
20,L5T,4.48
21,L5E,4.53
22,L5C,3.97
23,L5F,3.38
24,L5V,3.02

row,Variant,protein stability index
1,L5K,4.79
2,L5M,4
3,L5S,4.78
4,L5A,3.8
5,L5P,4.03
6,L5G,5.15
7,L5R,4.4
8,L5H,3.83
9,L5N,5.02
10,L5Q,4.78
11,L5D,4.64
12,L5W,2.52
13,L5Y,3.44
14,L5I,3.47
15,N14F,3.54
16,N14K,2.63
17,N14S,3.04
18,N14Q,2.57
19,N14D,3.59
20,N14C,2.82
21,N14I,2.02
22,N14T,3.21
23,N14R,2.81
24,N14P,4.43

row,Variant,protein stability index
1,N14W,2.55
2,N14V,3.3
3,N14E,2.68
4,N14Y,3.42
5,N14A,2.25
6,N14H,3.53
7,N14L,2.07
8,N14G,3.32
9,N14M,2.05
10,D4Q,4.31
11,D4S,2.74
12,D4P,3.74
13,D4R,3.76
14,D4K,4
15,D4L,3.55
16,D4V,3.99
17,D4E,3.86
18,D4I,3.41
19,D4C,3.88
20,D4M,4.15
21,D4G,4.02
22,D4H,4.22
23,D4F,2.82
24,D4W,2.64

row,Variant,protein stability index
1,D4Y,3.44
2,D4A,3.94
3,D4N,4.46
4,D4T,3.08
5,P1N,4.23
6,P1T,3.72
7,P1A,3.25
8,P1V,3.15
9,P1S,4.42
10,P1E,2.98
11,P1R,3.7
12,P1Q,3.26
13,P1H,4.02
14,P1K,3.66
15,P1Y,3.33
16,P1I,2.69
17,P1D,4.32
18,P1C,2.89
19,P1G,4.39
20,P1F,2.78
21,P1M,3.71
22,P1W,3.26
23,P1L,3.46

# From the supplement of paper PMC10567573
